# Experiment: yeast display, Sf9 membrane polyspecificity reagent, FACS + sequencing; frameworks hold sequencing errors
# Summary of the method: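 Polyreactivity labels are assigned by the sorting gate from which each nanobody was recovered. The gates were low and high (top ~1%), set on anti-HA fluorescence for expression and streptavidin fluorescence for reagent binding. Before sorting, galactose-induced (36–48 hours) yeast display cells were stained for 1 hour at 4 °C with 10% biotinylated, detergent-solubilized Sf9 membrane reagent.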
row,Sequence,polyreactivity (PSR sort gate)
1,QVQLVESGGGLVQAGGSLRLSCAASGGTFRANAMGWYRQAPGKERELVAAISFRGGTTYYADSVKGRFTISRDNAKNTVYLQMNSLKPEDTAVYYCAARFLYYFRGKGYDYWGQGTQVTVSS,high polyreactivity
2,QVQLVESGGGLVQAGGSLRLSCAASGGTFRKYAMGWYRPAPGKERELVATISNGGSTYYADSVKGRFTISRDNAKNTVYLQMNSLIPEDTAVYYCAARFDYWVSGGLVKYNYWGQGTQVTVSS,high polyreactivity
3,QVQLVESGGGLVQAGGSLRLSCAASGGTFRLYAMGWYRQAPGKDRELVAAITGVGSTNYADSVKGRFTISRDNAKNTVYLQMNSLKPEDTAVYYCAAYYWSQVLIQGYYSWGQGTQVTVSS,high polyreactivity
4,QVQLVESGGGLVQAGGSLRLSCAASGGTFRSNAMGWYRQAPGKERELVAASTNYADSVKGRFTISRDNAKTTVYLQMNSLKPEDTAVYFCAARLASWPLTYDFQWYEYWGQGTQVTLSS,low polyreactivity
5,QVQLVESGGGLVQAGGSLRLSCAASGGTFRSYAMGWFRQAPGKERELVASISSGGTTNYADSVKGRFTISRDNAKNTVYLQLTSLKPEDTAVYYCAKSYPGRAPGYYSWGQGTQVTVSS,low polyreactivity
6,QVQLVESGGGLVQAGGSLRLSCAASGGTFRVYAMGWYRQAPGKERELVASISWTVGGTYADSVKGRFTISRDNAKNTVYLQMNSLKPEDTAVYYCAAGGEWVNPYFPSSLDYWGQGTQVTVSS,low polyreactivity
7,QVQLVESGGGLVQAGGSLRLSCAASGGTFRVYVMGWYRQAPGKERELVADISRGGGSTYYADSVKGRFTISRDNAKNTVYLQMNSLKPEDTAVYYCAARVCRYPWRASEYDYWGQGTQVTVSS,high polyreactivity
8,QVQLVESGGGLVQAGGSLRLSCAASGGTFRYNAKGWYRQAPGKERELFATISIRGASTYYADSVKGRITISRDNAKHSVYLQLNSLKPEDTAVFYCAAERRNSYVLLIKYNYWGQGTQVTVSS,low polyreactivity
9,QVQLVESGGGLVQAGGSLRLSCAASGGTFRYNAMGWYRQAPGKERELVAAISSSGGSTYYADSVKGRFTISRDNAKNTVYLQMNSLKPEDTAVYYCAAKRRRYVELDYWGQVTQVTVSS,high polyreactivity
10,QVQLVESGGGLVQAGGSLRLSCAASGGTFRYYAMGRYRPAPGKERDLVARIRYNGGSTYYADSVKGRFTISRDNAKNTVSLQMKSLKPEDTAVDYCAAVGRYPRTWMNYWGQGNQVTVSS,high polyreactivity
11,QVQLVESGGGLVQAGGSLRLSCAASGGTFRYYTMGWYRQAPGKERELVASISGGGRTYYADSVKGRFTISRDNAKITVYLQMNSLKPEDTAVYYCNARNRVYYTLSGYGYWGQGTQVTVSS,high polyreactivity
12,QVQLVESGGGLVQAGGSLRLSCAASGGTFSFNAMGWYRQAPGKERELVAAITQTGDGTYYADSVKGRFTISRDNAKNTVYLQMNSLKPEDTAVYYCNTDSIPYVPWFRFDYWGQGTQVTVSS,low polyreactivity
13,QVQLVESGGGLVQAGGSLRLSCAASGGTFSGYVMGWYRQAPGKERELVAAISRRGTTTYYADSVKGRFTISRDNAKNTVYLQMISLKPEDTAVYYCAAVTRWKRTLSSFYYWGQGTQVTVSS,high polyreactivity
14,QVQLVESGGGLVQAGGSLRLSCAASGGTFSRYAMGWYRQAPGKERELVAAITRSGASTFYADSVKGRFTISRDNAKNTVYLQMNSLKPEDTAVYYCAADTYVYNEYDYWGQGTQVTVSS,high polyreactivity
15,QVQLVESGGGLVQAGGSLRLSCAASGGTFSSNAMGWYRQAPGKERELVAAISGSGDRTYYADSVKGRFTISRDNAKNTVYLQMNSLKPEDTAVYYCAKTLHKGSRGRYNYWGQGTQVTVSS,high polyreactivity
16,QVQLVESGGGLVQAGGSLRLSCAASGGTFSTYAMGWYRQAPGKERELVAAISYSTGNTYYADSVKGRFTISRDNAKNTVYFQMNSLKPEDTAVYYCATLGGSQRGLGSFTRKYDYWGQGTQVTVSS,low polyreactivity
17,QVQLVESGGGLVQAGGSLRLSCAASGGTFSYYAMGWYRQAPGKERELVAAINWSGASTYYADSVKGRFTISRDNAKNTVYLQMNSLKPEDTAVYYCNVYLGILYKYDYWGQGTQVTVSS,low polyreactivity
18,QVQLVESGGGLVQAGGSLRLSCAASGGTFSYYAMGWYRQAPGKERELVAAITYSGDRTYYADSVKGRFTISRDNAKNTVFLQMNSLKPEDTAVYYCNAVRGSWYGYYYWGQGTQVTVSS,high polyreactivity
19,QVQLVESGGGLVQAGGSLRLSCAASGGTFTAYAMGWYRQAPGKERELVAAISASGDSTYYADSVKGRFTISRDNAKNTVYLQMNSLKPEDTAVYYCNADWYRTGRRGSDYWGQGTQVTVSS,low polyreactivity
20,QVQLVESGGGLVQAGGSLRLSCAASGGTFTFYAMGWYRQATGKEMELVATINWSGGSTYYADSVKGRFTISRDNAKNTVYLQMNSLKPEDTAVYYCNAAWPYKSVEYWGQGTQVTVSS,low polyreactivity
21,QVQLVESGGGLVQAGGSLRLSCAASGGTFTGYAMGWYRQAPGKERELVAAISYSGTRTYYADSVKGRFTISRDNAKNTVYLQMNSLKPEDTAVYYCNALYAIWHDYWGQGTQVTVSS,high polyreactivity
22,QVQLVESGGGLVQAGGSLRLSCAASGGTFVGYTMGWYRQAPGKERELVAGIRTRSGSTSYADSVKGRFTISRDNAKNTVYLQMNSLKPEDTAVYYCAARPYGRYPYPEYYYWGQGTQVTVSS,high polyreactivity

row,Sequence,polyreactivity (PSR sort gate)
1,QVQLVESGGGLVQAGGSLRLSCAASGGTFVYNAMGWYRQAPGKERELVAAIRVRGDTTYYADSVKGRFTISRDNAKYTVYLQMNSLKPEDTAVYYCAAYPDYSYYYWGQGTQVTVSS,high polyreactivity
2,QVQLVESGGGLVQAGGSLRLSCAASGGTFWIYAMGWYRQAPGKERELVAGITTSGATTYYADSVKGRFTISRDNAKNTVYLQMNSLKPEDTAVYYCAAVIRPRYYQVRPRYDYWGQGTQVTVSS,low polyreactivity
3,QVQLVESGGGLVQAGGSLRLSCAASGGTFYAYAMGSYRQAPGKERELVAAITNSGGSTYYADSVKGRFTISRDNAKNNVYLQMHSLKPEDTAVYYCARRRSYRDNYWGQGTQVTVSS,high polyreactivity
4,QVQLVESGGGLVQAGGSLRLSCAASGGTFYAYAMGWYRQAPGKERELVAAITRSGGRPYYADSVKGRVTISRDNAKNTVYLQMNSLKPEDTEVYYCAADPHHYSGLDYWGQGTHVTVSS,low polyreactivity
5,QVQLVESGGGLVQAGGSLRLSCAASGGTFYFNAMGWYRQAPGKERELVATIRYSGGSTYYADSVKGRFTISRDNAKNTVYLQMNSLKPEDTAVYYCNARPRYLSPYRPFKYNYWGQGTQVTVSS,high polyreactivity
6,QVQLVESGGGLVQAGGSLRLSCAASGGTFYFYAMGWDRQAPGKERELVAAISRSVGSTYYADSVKGRFTISRDNAKNTVYLQMNSLKPEDTAVYYCAARYTGGGIRYDYWGQGTQVTLSS,high polyreactivity
7,QVQLVESGGGLVQAGGSLRLSCAASGGTFYGYAAMGWYRQAPGKERELVAAISRSGGRTYYADSVKGRFTISRDNAKNTVYLQMNSLKPEDTAVYDCNVGFYPYSFLTFQGGDYWGQGTQVTVSS,high polyreactivity
8,QVQLVESGGGLVQAGGSLRLSCAASGGTFYGYAMGWYRQAPGKERELVAAINYRGGRTYYADSVKGRFTISRDNAKNTVYLQMNSLKPEDTAVYYCAATSYRLDGYDYWGQGTQVTVSS,high polyreactivity
9,QVQLVESGGGLVQAGGSLRLSCAASGGTFYGYAMGWYRQAPGKERELVAAITSGDSTNYADSVKGRFTISRDNAKNTVYLQMNNLKPEDTAVYYCAAGDPTLLNESFDYWGQGTQVTVSS,low polyreactivity
10,QVQLVESGGGLVQAGGSLRLSCAASGGTFYHNVMGWYRQAPGKERELVAAIRYSGGRTYYADSVKGRFTLSRDNAKNTVYLQMNSLKPEDTAVYYCAVRSYYGPFGYWGQGTQVTVSS,high polyreactivity
11,QVQLVESGGGLVQAGGSLRLSCAASGGTFYLNAMGWYRQAAGKERELVAGISWGGGRTYYADSVKGRFTISRDNAKNTVYLQMNSLKPEDTAVYYCAAGAWRGPYSGYYYWGQGTQVTVSS,low polyreactivity
12,QVQLVESGGGLVQAGGSLRLSCAASGGTFYLNAMGWYRQAPGKERELVAGITWGGGRTYYADSVKGRFTISRDNAKNTVYLQMNSLKQEDTEVYYCAAGAWRGPYSGYYYWGQGTQVTVSS,low polyreactivity
13,QVQLVESGGGLVQAGGSLRLSCAASGGTFYNYAMGWYRQAPGKERELVAAISTSGTSTYYADSVKGRFTISRDNAKNTVYLQMNSLKPEDTAVYYCAARGLRVSSRGYYWGQGTQVTVSS,high polyreactivity
14,QVQLVESGGGLVQAGGSLRLSCAASGGTFYRYAMGWYRQAPGKERELVAAISRGGSTTYADSVKGRFTISRDNAKNTVYLQMNSLKPEDTAVYYCAARYRCSLPAGLRLLGQGTQVTVSS,high polyreactivity
15,QVQLVESGGGLVQAGGSLRLSCAASGGTFYVNALGWYRQAAGKERELVAAISYSGGNTYYADSVKGRFTISRDNAKNTVYLQMNSLKPEDTAVYYCAGEVFPWWGDDYWGQGTQVTVSS,low polyreactivity
16,QVQLVESGGGLVQAGGSLRLSCAASGGTFYYYAMGWYRQAPGKERELVAAITRSGGNTYYADSVKGRFTISRDNAKNTVYLQMNSLKPEDTAVYYCAAPFVKFVGSLVYAGYDSWGQGTQVTVSS,low polyreactivity
17,QVQLVESGGGLVQAGGSLRLSCAASGGTIAFNGMGWYRQAPAKERELVAAITWRSGSTYYADSVKGRFTISRDNAKNTVYLQMNSLKPEDTAVYYCAARLYRYTPFDYWGQGTQVTVSS,high polyreactivity
18,QVQLVESGGGLVQAGGSLRLSCAASGGTIAPYAMVWYRQAPGKERELVATISYSGTSTNYADSVKGRFTITRDNAKNTVYLQMNSLKPEDTAVYYCYAVLYARQRDRWARYDYWGQGTQVTVSS,high polyreactivity
19,QVQLVESGGGLVQAGGSLRLSCAASGGTIDYAMGWYSQAPGKERELVAAISKHGGRTYYADSVKGRFTISRDNAKYTVYLQMNSLKPEDTAVYYCAADAFRGFYWGQGTQVTVSS,high polyreactivity
20,QVQLVESGGGLVQAGGSLRLSCAASGGTITPYAMGWYRQAPGKERELVAAISRSGARTYYADSVKGRFTISRDNAKNTVYLQMNSLKPEDTAVYYCAKTFSGYRFDYWGQGTQVTVSS,high polyreactivity
21,QVQLVESGGGLVQAGGSLRLSCAASGGTIVWNAMGWYRQAPGKEREFVAAITSSGGSTYYADSVKGRFTITRDYAKNTVYLQINSLKPEDTAVDYCNVDTHSSYEFNSWGQGTQVTVSS,low polyreactivity

# — the nanobody polyreactivity screen of Harvey et al. (2022)
